Experimental findings from patent US6136579 are described below.

The experiment deals with asialofetuin (Sigma Type-I) (Bos taurus (Bovine)) (UniProt P12763).

“Triton extract of uninfected RK13 cells (pool or library)” displayed a […] (fluorescence assay, […] (mU/mg total protein) of 0.036.
